Data taken from US20210032353A1 (NATIONAL HEALTH RESEARCH INSTITUTES, published 2021).

T1: R3-IgD4 (human, UniProt P35916)
T1 construct: recombinant fragment; also called immunoglobin-like domain 4 of VEGFR3
T1 sequence (receptor fragment, looked up): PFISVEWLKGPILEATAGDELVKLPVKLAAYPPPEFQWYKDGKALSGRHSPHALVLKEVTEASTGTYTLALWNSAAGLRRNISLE

T2: R3-IgD7 (human, UniProt P35916)
T2 construct: recombinant fragment; also called immunoglobin-like domain 7 of VEGFR3
T2 sequence (receptor fragment, looked up): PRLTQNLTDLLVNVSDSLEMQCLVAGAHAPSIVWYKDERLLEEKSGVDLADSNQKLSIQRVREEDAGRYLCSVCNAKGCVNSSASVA

T3: VEGFR3 IgD5 (individual recombinant immunoglobin-like domain 5 of VEGFR3) (UniProt P35916 422-552, limits assumed)
T3 construct: domain: IgD5
T3 sequence (looked up): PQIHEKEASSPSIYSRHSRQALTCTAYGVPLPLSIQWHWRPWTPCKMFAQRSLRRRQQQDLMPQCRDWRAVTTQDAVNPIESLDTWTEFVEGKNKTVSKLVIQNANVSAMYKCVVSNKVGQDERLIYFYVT

B1: R2C9-11 monoclonal antibody (antibody, V domains shown)
VH: QVQLQQPGAELVKPGASVKLSCKASGYTFTSYWMHWVKQRPGQGLEWIGEINPSNGRTNYNEKFKSKATLTVDKSSSTAYMQLSSLTSEDSAVYYCANLYFDVWGAGTTVTVSS
VL: DIVMTQSPSSLSVSAGEKVTMSCKSSQNLLNSGNQKYYLAWYQQKPGQPPKLLIYGASIRESGVPDRFIGSGSGTDFTLTISSVQAEDLAVYFCQSDHSYPYTFGGGTKLEIK
notes: Mouse monoclonal antibody purified from hybridoma supernatant; An IgG2a isotype antibody served as its control; also called R2C9-11 mAb
B2: R2C7-1 monoclonal antibody (antibody, V domains shown)
VH: EVQLQQSGPELVKPGASVKISCKASGYSFTDYFINWVIQRHGKSLEWVGRINPYNGGSFYNQKFKDKATLTVDKSSNIAHMELRSLASEDSAIYYCARSGGNGYDYWGQGTTLTVSS
VL: DIVMTQAAPSVPVIPGESVSISCRSSKSLLHSNGNTYLYWFLQRPGQSPQLLIYRMSNLASGVPDRFSGSGSGTAFTLRISRVEAEDVGVYYCMQHLEYPYTFGGGTKVEIK
notes: Mouse monoclonal antibody purified from hybridoma supernatant; An IgG2a isotype antibody served as its control; also called R2C7-1 mAb

How the values were obtained:
R3-IgD4 [1] = biological target: T1, R3-IgD4; assay: cell-based competitive ELISA: R2C9-11 absorbed with the soluble domain, then bound to 293T/VEGFR3 cells, OD405
Experimental: (§1) Panel A, Cell-based competitive. ELISA. HEK293T cells expressing VEGFR3 (293T/VEGFR3) were coated in 96-well plates. The optimal concentrations of R2C7-1 and R2C9-11 mAbs were determined as described previously (data now shown). The optimal concentrations of R2C7-1 and R2C9-11 mAbs were absorbed with the designed doses of the individual immunoglobin-like domains of VEGFR3 (R3-IgDs) antigens, as indicated. The bound antibodies were immune-probed with secondary antibody conjugated with HRP, visualized by addition of ABTS, and measured at OD₄₀₅ using a microplate reader (SpectraMax). Data are represented as means±S.D. of percentage of isotype control (CTL) in triplicate. The epitope locations of R2C7-1 and R2C9-11 on the VEGFR3 antigen are indicated by the black lines spanning IgD6 in the schematics. Panel B, Native gel electrophoresis. The whole extracellular domain (R3-IgD1-7), domain 3-4 (R3-IgD3-4) and domain 6-7 (R3-IgD6-7) were constructed, expressed in the E. coli, and purified using the anti-Myc affinity purification system. The purity and molecular weight of each recombinant protein were visualized with a standard Western blot using anti-Myc antibody as probe (left). The binding of R2C7-1 and R2C9-11 to the VEGFR3 truncated antigens was evaluated with native gel electrophoresis to confirm the epitopes of R2C7-1 and R2C9-11 mAbs (middle and right, respectively).
(§2) The same methodology was adopted to define the epitopes of the antibodies on VEGFR3. To determine the optimal concentrations of the antibodies for VEGFR3, HEK293T/VEGFR3 transfectants were used as targets (data not shown). Subsequently, the antibodies with optimal concentrations were absorbed with individual recombinant extracellular domains of VEGFR3 (R3-IgDs) for competing the binding epitopes. Similarly, their major epitopes were both located in IgD6, but not in IgD7, of VEGFR3. To conform this finding, Western blotting analysis of different recombinant IgD proteins was carried out using native gel electrophoresis.

R3-IgD7 [2] = biological target: T2, R3-IgD7; assay: as above
Experimental: as §1, §2

[3] = biological target: T3, VEGFR3 IgD5 (individual recombinant …); assay: as above
Experimental: as §1, §2

VEGFR2 (KDR)-IgD 6-7 = biological target: T4, VEGFR2 (KDR)-IgD 6-7 (UniProt P35968 551-753); assay: Biacore; antibody as flow analyte, KDR-IgD6-7 as ligand
T4 construct: domain: IgD6-7; GST-tagged recombinant protein from E. coli by the methods; also called recombinant IgD6-7 of VEGFR2; VEGFR2-ED Ig D6-7; not shown: GST tag from the pGEX-4T-1 vector
T4 sequence (P35968 551-753): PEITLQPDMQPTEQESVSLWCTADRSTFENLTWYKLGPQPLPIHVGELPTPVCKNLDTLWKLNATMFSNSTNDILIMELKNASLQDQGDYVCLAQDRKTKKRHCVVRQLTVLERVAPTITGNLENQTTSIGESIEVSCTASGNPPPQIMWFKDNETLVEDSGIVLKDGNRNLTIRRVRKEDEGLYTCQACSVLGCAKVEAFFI

R3-IgD4 [4] = biological target: T1, R3-IgD4; assay: cell-based competitive ELISA: R2C7-1 absorbed with the soluble domain, then bound to 293T/VEGFR3 cells, OD405
Experimental: as §1, §2

R3-IgD7 [5] = biological target: T2, R3-IgD7; assay: as above
Experimental: as §1, §2

[6] = biological target: T3, VEGFR3 IgD5 (individual recombinant …); assay: as above
Experimental: as §1, §2

Row | koff (VEGFR2 (KDR)-IgD 6-7) | Binder | binding result (R3-IgD4 [1]) | binding result (R3-IgD7 [2]) | binding result [3] | binding result (R3-IgD4 [4]) | binding result (R3-IgD7 [5]) | binding result [6]
1 | – | B1 | no binding (tested: 10 (unit not printed on the sheet)) | no binding (tested: 10 (unit not printed on the sheet)) | no binding (tested: 10 (unit not printed on the sheet)) | – | – | –
2 | 1.1e-05 s⁻¹ | B2 | – | – | – | no binding (tested: 10 (unit not printed on the sheet)) | no binding (tested: 10 (unit not printed on the sheet)) | no binding (tested: 10 (unit not printed on the sheet))
